Assay results as given in the RNAGym collection of RNA variant scans (doi:10.1093/molbev/msab373).

B1: Azoarcus group I ribozyme (parent)
chain: GUGCCUUGCGCCGGGAAACCACGCAAGGGAUGGUGUCAAAUUCGGCGAAACCUAAGCGCCCGCCCGGGCGUAUGGCAACGCCGAGCCAAGCUUCGGCGCCUGCGCCGAUGAAGGUGUAGAGACUAGACGGCACCCACCUAAGGCAAACGCUAUGGUGAAGGCAUAGUCCAGGGAGUGGCGAAAGUCACACAAACCGG

Variants of: B1
Assay: reverse-splicing fitness (ratio to wild type); higher = more active; in vitro selection; Mg2+ level not given
Summary of the method: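 An in vitro group I ribozyme library with randomized positions was T7-transcribed and gel-purified. In triplicate, 10 pmol RNA in EPPS pH 7.5 was reacted with 50 pmoles of a 30-nt RNA substrate for 1 h at 37 °C across several added MgCl2 levels (1–48 mM), then stopped with EDTA. Products were reverse transcribed from a substrate-complementary primer, PCR-amplified and sequenced (HiSeq 4000). Fitness is a variant's read proportion after selection over that before, normalised to wild type.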
In the case of A120U A145G C150U C169G, the reverse-splicing fitness is reported as 0.199.
With A120U A145G C150U C169A the reverse-splicing fitness was 0.0163.
In the case of A120U A145G C150U C169U, the reverse-splicing fitness is reported as 0.256.
Variant A120U A145G C169U has a reverse-splicing fitness of 0.286.
A120U A145G C169G gave a reverse-splicing fitness of 0.255.
In the case of A120U A145G C169A, the reverse-splicing fitness is reported as 0.0154.
Work on A145C C169G yielded a reverse-splicing fitness of 0.26.
A145C C169A gave a reverse-splicing fitness of 0.167.
Work on A145C C169U yielded a reverse-splicing fitness of 0.351.
A145G C150U C169A showed a reverse-splicing fitness of 0.136.
With A145G C150U C169G the reverse-splicing fitness was 0.239.
For A145G C150U C169U, the reverse-splicing fitness was 0.382.
A145C C150A C169A showed a reverse-splicing fitness of 0.0125.
With A145C C150A C169U the reverse-splicing fitness was 0.0286.
A145C C150A C169G showed a reverse-splicing fitness of 0.0208.
With A120U A145G C150A C169A U176C the reverse-splicing fitness was 0.00372.
A120U A145G C150A C169A U176G showed a reverse-splicing fitness of 0.00241.
Variant A120U A145G C150A C169A U176A has a reverse-splicing fitness of 0.00533.
In the case of A145G C169A U176C, the reverse-splicing fitness is reported as 0.0662.
For A145G C169A U176A, the reverse-splicing fitness was 0.0412.
Variant A145G C169A U176G has a reverse-splicing fitness of 0.00541.
A145C C150A C169A U176A gave a reverse-splicing fitness of 0.0107.
Work on A145C C150A C169A U176G yielded a reverse-splicing fitness of 0.00533.
A145C C150A C169A U176C showed a reverse-splicing fitness of 0.00805.
Variant A145G U176A has a reverse-splicing fitness of 0.863.
In the case of A145G U176G, the reverse-splicing fitness is reported as 0.325.
In the case of A145G U176C, the reverse-splicing fitness is reported as 0.91.
Variant A145C C169A U176C has a reverse-splicing fitness of 0.05.
For A145C C169A U176A, the reverse-splicing fitness was 0.029.
A145C C169A U176G showed a reverse-splicing fitness of 0.00461.
For A120U C150U U176A, the reverse-splicing fitness was 0.62.
A120U C150U U176C gave a reverse-splicing fitness of 0.556.
In the case of A120U C150U U176G, the reverse-splicing fitness is reported as 0.222.
A120U A145U C150A gave a reverse-splicing fitness of 0.215.
A120U A145U C150G gave a reverse-splicing fitness of 0.267.
With A120U A145U C150U the reverse-splicing fitness was 0.785.
Variant A120U C150U C169A has a reverse-splicing fitness of 0.0111.
In the case of A120U C150U C169U, the reverse-splicing fitness is reported as 0.203.
A120U C150U C169G showed a reverse-splicing fitness of 0.15.
A120U C150A C169G U176C showed a reverse-splicing fitness of 0.0141.
Variant A120U C150A C169G U176G has a reverse-splicing fitness of 0.00249.
For A120U C150A C169G U176A, the reverse-splicing fitness was 0.0106.
Work on A120U A145G C150G C169A U176A yielded a reverse-splicing fitness of 0.0107.
In the case of A120U A145G C150G C169A U176C, the reverse-splicing fitness is reported as 0.00713.
Work on A120U A145G C150G C169A U176G yielded a reverse-splicing fitness of 0.00464.
A120U C169A U176C gave a reverse-splicing fitness of 0.00594.
A120U C169A U176A gave a reverse-splicing fitness of 0.00399.
Work on A120U C169A U176G yielded a reverse-splicing fitness of 0.00204.
Variant A120U A145U C150G C169G has a reverse-splicing fitness of 0.0307.
Variant A120U A145U C150G C169U has a reverse-splicing fitness of 0.0429.
Work on A120U A145U C150G C169A yielded a reverse-splicing fitness of 0.00425.
With A120U A145G C150U C169A U176C the reverse-splicing fitness was 0.00469.
Variant A120U A145G C150U C169A U176G has a reverse-splicing fitness of 0.00258.
A120U A145G C150U C169A U176A gave a reverse-splicing fitness of 0.00538.
Variant A145C C169G U176A has a reverse-splicing fitness of 0.0744.
Work on A145C C169G U176C yielded a reverse-splicing fitness of 0.116.
In the case of A145C C169G U176G, the reverse-splicing fitness is reported as 0.00875.
A145G C150U C169A U176A showed a reverse-splicing fitness of 0.0281.
Variant A145G C150U C169A U176C has a reverse-splicing fitness of 0.0527.
For A145G C150U C169A U176G, the reverse-splicing fitness was 0.00628.
In the case of A120U A145U C150U U176A, the reverse-splicing fitness is reported as 0.608.
For A120U A145U C150U U176C, the reverse-splicing fitness was 0.552.
With A120U A145U C150U U176G the reverse-splicing fitness was 0.206.
With A145U C150A C169U the reverse-splicing fitness was 0.0521.
Variant A145U C150A C169A has a reverse-splicing fitness of 0.0212.
A145U C150A C169G showed a reverse-splicing fitness of 0.0369.
For A120U A145G C150U C169G U176C, the reverse-splicing fitness was 0.063.
Work on A120U A145G C150U C169G U176G yielded a reverse-splicing fitness of 0.00281.
For A120U A145G C150U C169G U176A, the reverse-splicing fitness was 0.0289.
For A145C C150A C169G U176G, the reverse-splicing fitness was 0.00531.
With A145C C150A C169G U176C the reverse-splicing fitness was 0.0203.
Work on A145C C150A C169G U176A yielded a reverse-splicing fitness of 0.0271.
In the case of A145G C150G C169U U176G, the reverse-splicing fitness is reported as 0.00808.
A145G C150G C169U U176C showed a reverse-splicing fitness of 0.0454.
Work on A145G C150G C169U U176A yielded a reverse-splicing fitness of 0.0192.
With A120U A145U C150U C169A U176G the reverse-splicing fitness was 0.00234.
Work on A120U A145U C150U C169A U176A yielded a reverse-splicing fitness of 0.00335.
Variant A120U A145U C150U C169A U176C has a reverse-splicing fitness of 0.00496.
A120U A145G C150G gave a reverse-splicing fitness of 0.25.
A120U A145G C150U showed a reverse-splicing fitness of 0.841.
A120U A145U U176C showed a reverse-splicing fitness of 0.642.
Variant A120U A145U U176A has a reverse-splicing fitness of 0.681.
A120U A145U U176G showed a reverse-splicing fitness of 0.328.
